Patent US20080089931

Molecular target: EphA2 receptor tyrosine kinase (UniProt P29317)
Sequence of UniProt P29317 (P29317 whole entry, looked up): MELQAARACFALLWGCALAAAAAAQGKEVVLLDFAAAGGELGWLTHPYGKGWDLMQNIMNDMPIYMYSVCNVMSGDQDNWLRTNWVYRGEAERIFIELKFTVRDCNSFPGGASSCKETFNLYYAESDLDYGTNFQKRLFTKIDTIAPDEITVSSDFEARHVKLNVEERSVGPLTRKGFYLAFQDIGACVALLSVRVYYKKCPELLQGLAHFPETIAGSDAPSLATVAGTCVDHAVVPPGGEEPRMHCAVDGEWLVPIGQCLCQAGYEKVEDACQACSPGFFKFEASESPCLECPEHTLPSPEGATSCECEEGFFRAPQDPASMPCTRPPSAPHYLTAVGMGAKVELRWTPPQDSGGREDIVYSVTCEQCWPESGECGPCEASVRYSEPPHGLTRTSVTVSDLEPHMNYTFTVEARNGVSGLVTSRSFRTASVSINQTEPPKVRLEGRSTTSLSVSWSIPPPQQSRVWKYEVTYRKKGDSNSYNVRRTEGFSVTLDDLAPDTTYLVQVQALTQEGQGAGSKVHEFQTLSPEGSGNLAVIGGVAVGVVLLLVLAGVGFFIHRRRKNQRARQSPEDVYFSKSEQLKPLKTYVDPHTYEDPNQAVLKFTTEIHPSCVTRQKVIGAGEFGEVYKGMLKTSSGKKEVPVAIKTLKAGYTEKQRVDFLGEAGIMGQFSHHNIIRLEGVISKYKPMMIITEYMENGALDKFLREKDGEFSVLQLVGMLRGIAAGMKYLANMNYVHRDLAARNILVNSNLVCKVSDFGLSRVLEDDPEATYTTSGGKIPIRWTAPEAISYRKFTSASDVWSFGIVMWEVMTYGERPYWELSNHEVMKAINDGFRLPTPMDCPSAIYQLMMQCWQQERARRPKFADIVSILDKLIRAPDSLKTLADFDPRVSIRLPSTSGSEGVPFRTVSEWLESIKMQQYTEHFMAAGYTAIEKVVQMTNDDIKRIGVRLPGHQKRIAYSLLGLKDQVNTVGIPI

## purified LMW-PTP protein
  dephosphorylation of immunoprecipitated EphA2 (phosphotyrosine Western blot): the LMW-PTP dephosphorylated EphA2 in an enzyme concentration-dependent and a time-dependent manner
